“And” between values parts separate entries of the source, which are not always exact repeats. Identical values can stand only once.
Biological target: ERGU-1::GFP (C. elegans ERGU-1, Y87G2A.13, with GFP fused to its C-terminus) (C. elegans)
Experiment: SDS-PAGE western blot

stoichiometry N: 2 and 4
Substance: ERGU-1::GFP (C. elegans ERGU-1, Y87G2A.13, with GFP fused to its C-terminus) (natural protein)

— PMC11212984
